Results reported in patent publication US20120114667A1.
One block for each substance: values may come before it.

How the values were obtained:
[1] = molecular target: macaque β1 integrin chain on T cells (Macaque); test: FACS on macaque PBMC, control antibody
[2] = molecular target: β1 integrin chain on HT29 cells (α5 null line) (human) (UniProt P05556); test: FACS on HT29 cells, positive control
[3] = molecular target: human α5β1 integrin (human) (UniProt P08648); test: FACS on human α5β1-transfected against untransfected 300.19 cells, negative control
Chain of human α5β1 integrin (human) (P08648 42-1049, chain 1 of 2): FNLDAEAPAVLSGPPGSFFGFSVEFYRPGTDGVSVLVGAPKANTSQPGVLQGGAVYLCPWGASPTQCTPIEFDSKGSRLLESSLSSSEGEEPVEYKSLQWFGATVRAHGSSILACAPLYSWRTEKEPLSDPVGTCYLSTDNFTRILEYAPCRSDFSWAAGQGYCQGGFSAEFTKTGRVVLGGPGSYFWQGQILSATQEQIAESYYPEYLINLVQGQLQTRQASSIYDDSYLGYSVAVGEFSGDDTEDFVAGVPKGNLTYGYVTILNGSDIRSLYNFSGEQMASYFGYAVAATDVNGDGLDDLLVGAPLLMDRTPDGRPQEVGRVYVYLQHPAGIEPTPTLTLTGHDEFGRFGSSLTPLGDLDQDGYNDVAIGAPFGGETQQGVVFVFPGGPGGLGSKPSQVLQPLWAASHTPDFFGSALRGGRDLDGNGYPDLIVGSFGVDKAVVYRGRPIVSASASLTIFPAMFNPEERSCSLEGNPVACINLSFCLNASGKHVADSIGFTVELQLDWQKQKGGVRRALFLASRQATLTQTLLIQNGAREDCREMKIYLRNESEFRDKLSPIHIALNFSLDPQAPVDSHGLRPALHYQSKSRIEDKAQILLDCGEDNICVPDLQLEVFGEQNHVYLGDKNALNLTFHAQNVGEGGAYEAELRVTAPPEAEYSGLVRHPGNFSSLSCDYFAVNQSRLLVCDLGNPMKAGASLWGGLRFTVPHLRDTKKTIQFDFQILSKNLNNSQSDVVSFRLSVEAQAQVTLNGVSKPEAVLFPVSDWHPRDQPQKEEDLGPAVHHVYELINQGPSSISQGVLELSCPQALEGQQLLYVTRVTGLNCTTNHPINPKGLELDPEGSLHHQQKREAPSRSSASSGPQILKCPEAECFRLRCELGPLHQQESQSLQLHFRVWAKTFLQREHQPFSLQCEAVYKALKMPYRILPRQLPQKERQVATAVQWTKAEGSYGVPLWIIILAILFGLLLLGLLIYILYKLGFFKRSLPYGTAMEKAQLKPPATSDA
Chain of human α5β1 integrin (human) (P05556 21-798, chain 2 of 2, further chain): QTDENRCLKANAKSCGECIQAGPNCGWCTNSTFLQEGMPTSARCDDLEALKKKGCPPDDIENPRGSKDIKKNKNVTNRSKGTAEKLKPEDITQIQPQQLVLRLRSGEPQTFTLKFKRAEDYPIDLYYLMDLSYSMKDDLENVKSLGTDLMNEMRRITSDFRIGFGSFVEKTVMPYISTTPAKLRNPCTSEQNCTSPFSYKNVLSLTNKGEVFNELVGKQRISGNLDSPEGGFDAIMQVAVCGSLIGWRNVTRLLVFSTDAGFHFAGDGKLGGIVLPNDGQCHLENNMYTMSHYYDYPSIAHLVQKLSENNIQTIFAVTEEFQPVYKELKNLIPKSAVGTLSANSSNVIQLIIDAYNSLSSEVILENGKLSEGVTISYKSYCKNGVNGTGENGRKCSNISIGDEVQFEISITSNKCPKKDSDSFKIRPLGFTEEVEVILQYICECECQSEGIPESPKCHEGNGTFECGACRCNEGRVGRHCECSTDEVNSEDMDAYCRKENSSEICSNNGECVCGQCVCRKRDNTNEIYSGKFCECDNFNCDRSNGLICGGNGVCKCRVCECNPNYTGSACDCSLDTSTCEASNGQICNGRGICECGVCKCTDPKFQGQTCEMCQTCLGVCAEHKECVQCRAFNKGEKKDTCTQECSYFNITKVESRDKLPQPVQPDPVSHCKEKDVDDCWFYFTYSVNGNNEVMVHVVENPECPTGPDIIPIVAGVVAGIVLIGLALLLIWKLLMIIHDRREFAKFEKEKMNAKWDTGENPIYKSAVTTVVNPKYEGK

[4] = molecular target: β1 integrin chain on HT29 cells (α5 null line) (human) (UniProt P05556); test: FACS on HT29 cells, isotype control
[5] = molecular target: human α5β1 integrin (human) (UniProt P08648); test: FACS on human α5β1-transfected 300.19 cells, negative control
[6] = molecular target: Macaque α5β1 (Macaque); test: FACS on macaque PBMC, isotype control
[7] = molecular target: macaque αV integrin chain on T cells (Macaque); test: FACS on macaque PBMC, control antibody
[8] = molecular target: αv integrin chain on HT29 cells (human) (UniProt P06756); test: FACS on HT29 cells, positive control
Chain of αv integrin chain on HT29 cells (human) (P06756 31-1048): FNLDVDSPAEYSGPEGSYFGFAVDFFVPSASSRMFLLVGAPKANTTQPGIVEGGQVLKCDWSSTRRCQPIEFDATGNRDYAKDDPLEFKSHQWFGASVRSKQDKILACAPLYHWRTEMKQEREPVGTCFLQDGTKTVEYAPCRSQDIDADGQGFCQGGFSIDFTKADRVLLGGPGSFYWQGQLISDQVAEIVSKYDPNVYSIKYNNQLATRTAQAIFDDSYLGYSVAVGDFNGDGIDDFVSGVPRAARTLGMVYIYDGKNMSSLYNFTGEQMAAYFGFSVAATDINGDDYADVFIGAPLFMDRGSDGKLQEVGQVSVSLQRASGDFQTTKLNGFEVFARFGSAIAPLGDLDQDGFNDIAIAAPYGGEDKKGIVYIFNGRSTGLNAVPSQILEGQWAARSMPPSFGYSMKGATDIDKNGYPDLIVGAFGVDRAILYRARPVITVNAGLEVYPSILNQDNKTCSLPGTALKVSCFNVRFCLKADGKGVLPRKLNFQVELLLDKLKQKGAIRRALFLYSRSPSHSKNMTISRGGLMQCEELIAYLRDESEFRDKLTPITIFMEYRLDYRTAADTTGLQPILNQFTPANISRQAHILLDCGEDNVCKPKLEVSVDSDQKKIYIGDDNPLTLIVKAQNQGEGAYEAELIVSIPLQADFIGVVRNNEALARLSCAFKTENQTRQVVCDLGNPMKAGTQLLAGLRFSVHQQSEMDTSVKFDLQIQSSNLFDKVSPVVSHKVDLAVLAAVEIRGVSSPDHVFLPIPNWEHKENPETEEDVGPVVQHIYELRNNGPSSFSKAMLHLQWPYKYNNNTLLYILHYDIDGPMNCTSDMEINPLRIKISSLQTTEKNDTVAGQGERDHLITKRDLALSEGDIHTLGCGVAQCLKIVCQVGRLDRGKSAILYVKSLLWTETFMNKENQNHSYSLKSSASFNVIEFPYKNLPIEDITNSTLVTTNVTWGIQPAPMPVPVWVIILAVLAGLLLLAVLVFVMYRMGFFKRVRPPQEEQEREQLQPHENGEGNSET

[9] = molecular target: avb3 and avb5 integrins on A375M cells; test: cell-based or functional assay
[10] = molecular target: αvβ6 integrin on HT29 cells (human) (UniProt P06756); test: FACS on HT29 cells, positive control
Chain of αvβ6 integrin on HT29 cells (human) (P06756 31-1048, chain 1 of 2): as the sequence (P06756 31-1048) above
Chain of αvβ6 integrin on HT29 cells (human) (P18564 22-788, chain 2 of 2, further chain): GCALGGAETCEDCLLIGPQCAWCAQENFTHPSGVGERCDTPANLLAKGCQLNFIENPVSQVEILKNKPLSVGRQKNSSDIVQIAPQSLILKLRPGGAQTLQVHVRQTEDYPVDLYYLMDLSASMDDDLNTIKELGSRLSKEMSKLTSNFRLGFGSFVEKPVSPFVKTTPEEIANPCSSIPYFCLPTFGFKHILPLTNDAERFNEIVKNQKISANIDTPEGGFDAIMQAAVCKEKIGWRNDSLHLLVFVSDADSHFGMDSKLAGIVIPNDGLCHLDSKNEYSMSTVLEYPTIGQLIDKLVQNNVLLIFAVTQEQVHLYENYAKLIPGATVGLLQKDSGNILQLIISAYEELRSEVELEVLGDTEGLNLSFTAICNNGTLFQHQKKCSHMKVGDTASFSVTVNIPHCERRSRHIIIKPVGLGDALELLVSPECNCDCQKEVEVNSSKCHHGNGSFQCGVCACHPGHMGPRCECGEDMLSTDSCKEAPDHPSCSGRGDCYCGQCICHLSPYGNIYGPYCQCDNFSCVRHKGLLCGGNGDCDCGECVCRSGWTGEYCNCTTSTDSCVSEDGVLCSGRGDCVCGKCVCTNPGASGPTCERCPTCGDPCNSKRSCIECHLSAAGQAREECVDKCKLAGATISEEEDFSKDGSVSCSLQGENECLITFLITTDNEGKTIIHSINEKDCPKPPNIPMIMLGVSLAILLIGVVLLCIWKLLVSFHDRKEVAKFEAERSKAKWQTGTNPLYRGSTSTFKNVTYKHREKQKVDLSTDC

[11] = molecular target: β1 integrin chain on HT29 cells (α5 null line) (human) (UniProt P05556); test: FACS on HT29 cells (no α5, β1 present), control antibody to α5β1

Chain of β1 integrin chain on HT29 cells (α5 null line) (human) (P05556 21-798): as the sequence (P05556 21-798, chain 2 of 2, further chain) above

Geo Mean on Macaque T-cells IgG detection [1]: 141
Binding Geomean [2]: 362
Substance: 4b4 anti beta1 (antibody)

Ratio (α5β1 expressing cells / parental cells) [3]: 0.8
Binding Geomean [4]: 2.84
X Geo Mean [5]: 12
Substance: Human IgG2 (antibody)

Geo Mean on Macaque T-cells IgG detection [6]: 3
Substance: Human IgG2/4

Binding Geomean [4]: 3.2
Substance: Human IgG4 (antibody)

Geo Mean on Macaque T-cells IgG detection [7]: 3
Binding Geomean [8]: 294
Osteopontin Adhesion (% inhibition) at 5 ug/ml, A375M cells [9]: 97%
Vitronectin Adhesion (% inhibition) at 5 ug/ml, A375M cells [9]: 96%
Substance: L230 (antibody)

Binding Geomean [10]: 39.2
Substance: MAB2077Z avb6 (antibody)

Geo Mean on Macaque T-cells IgG detection [6]: 2
Ratio (α5β1 expressing cells / parental cells) [3]: 0.9
Binding Geomean [4]: 2.55
X Geo Mean [5]: 14.9
Substance: Mouse IgG1 (antibody)

Binding Geomean [4]: 10.2
Substance: Mouse IgG2a (antibody)

Binding Geomean [11]: 2.69
Substance: mAb 1969 (antibody)
